The values below come from patent US20060252697A1 (ANTYRA, published 2006).

Where no end group is shown, it is not given here. Where only a bound is given, the exact number is not on record here.

Test [1] addresses rat growth hormone binding protein (rGHBP) (rat) (UniProt P16310). The test is described as follows: TRFD competition on rGHBP-coated wells, vs. bGH.
For test [2] the target is unchanged. Kind of test: TRFD competition on rGHBP-coated wells, vs. bP#418 (SEQ ID NO: 12).
The target is the same in test [3]. The test is described as follows: TRFD competition on rGHBP-coated wells, vs. bP#447 (SEQ ID NO: 11).
Test [4] has the same target. The test is described as follows: phage ELISA competition on rGHBP (100 ng/well); blocked: H5 phage. For orientation: In an ELISA, binding on a coated surface is turned into a signal by an enzyme label.
The target is the same in test [5]. Kind of test: TRFD, ED50 of specific binding of biotinylated ligand to rGHBP-coated wells.
The target of test [6] is humanized rat growth hormone binding protein (‘hu’GHBP) (rat (humanized by one substitution)) (UniProt P16310). Kind of test: phage ELISA on ‘hu’GHBP-coated wells, +BSA (1 µM).
For test [7] the target is unchanged. Kind of test: phage ELISA on ‘hu’GHBP-coated wells, no competitor.
Test [8] has the same target. The test is described as follows: phage ELISA on ‘hu’GHBP-coated wells, competitor human GH (+hGH, 1 µM).
The target of test [9] is T1, rat growth hormone binding protein (rGHBP) (rat, UniProt P16310 19-265).
T1 construct: extracellular domain; also called rat GHBP; soluble rGHBP
T1 sequence (looked up): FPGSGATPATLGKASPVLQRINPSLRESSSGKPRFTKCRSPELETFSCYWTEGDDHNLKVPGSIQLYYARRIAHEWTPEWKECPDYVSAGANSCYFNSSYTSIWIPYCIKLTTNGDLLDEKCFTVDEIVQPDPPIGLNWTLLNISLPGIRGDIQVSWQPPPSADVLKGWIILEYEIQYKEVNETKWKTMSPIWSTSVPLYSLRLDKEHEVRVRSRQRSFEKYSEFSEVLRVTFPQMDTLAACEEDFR
Kind of test: BIAcore, bPeptide binding to rGHBP, appKD 1. In general terms: SPR reads the build-up and loss of mass on a sensor chip optically.

For test [10], the target named is T1, rat growth hormone binding protein …. Kind of test: BIAcore, bPeptide binding to rGHBP, appKD 2.
Test [11] shares this target. Kind of test: phage ELISA competition on rGHBP (100 ng/well); synthetic peptide against H5 phage. The method, then: Wells were coated with rGHBP (100 ng/well) and blocked as described. […] The peptides included two lysine residues added to the C-terminus of the sequence shown. Phage binding was detected with HRP-anti M13 phage antibody. Number and sequence of competing peptides are detailed on the right of figure. Control binding=binding in absence of peptide.

Test [12] has the same target. The test is described as follows: phage ELISA competition on rGHBP (100 ng/well); synthetic H5 peptide against H5 phage. On the procedure: Wells were coated with rGHBP (100 ng/well) and blocked as described. […] Phage was detected with HRP-anti M13 phage antibody and reported at OD₄₀₅ as described.
For test [13] the target is unchanged. Kind of test: TRFD.
For test [14] the target is unchanged. The test is described as follows: TRFD, ED50 of specific binding of biotinylated ligand to rGHBP-coated wells.
Protocol: Wells were coated with rGHBP (100 ng/well) overnight as described. ED₅₀ and IC₅₀ were calculated from analysis of specific bLigand binding to rGHBP. Competitors were added 1 hr prior to addition of bLigand as described.
(§1) rGHBP (50-200 μg/ml in 50 mM NaHCO₃) was coated onto low-fluorescence MaxiSorp (Nunc) plates (100 μl/well) overnight at 4° C. The plates were blocked with PBS containing 2% non-fat milk and 0.05% BSA for 2 hr at room temperature, followed by three PBS washes. […] Ten microliters of the 10× concentrated material was added to the plates and incubated at room temperature for 1 hr to overnight.
(§2) The plates were then washed five times with Tris-buffered saline (pH 7.5) containing 0.1% Tween-20 (TTBS). To each well, 100 μl of europium-labeled streptavidin in DELFIA assay buffer (100 mM Tris-HCl, pH 7.8; 150 mM NaCl; 0.5% BSA; 0.05% bovine Ig; 0.05% NaN3; 0.01% Tween-20) was added and incubated for 1.5 hr at room temperature. The plates were then washed five times with TTBS and tapped dry. Subsequently, 100 μl of DELFIA enhancement solution (100 mM acetone-potassium hydrogen phthalate, pH 3.2; 15 mM 2-naphtyltrifluoroacetate; 50 mM tri(n-octyl)-phosphine oxide; 0.1% Triton X-100) was added to each well, and the plates were shaken for 10 min at room temperature.
Test [15] shares this target. Kind of test: phage ELISA, rGHBP 100 ng/well. The method, then: Alanine replacement for single or multiple amino acids is represented by “a” and for cysteine by “X”. FIG. 4A illustrates the binding of wild-type (WT) and mutant phage on wells coated with milk (2%), FcMAb (100 ng/well), rGHBP (100 ng/well), or MAb specific for the E-tag epitope (100 ng/well). FIG. 4B illustrates the ratio of mutant phage binding to rGHBP versus anti-E-tag MAb coated wells.
For this analysis, phage were input at 10¹⁰/well. Wild type (WT) and mutant phage were tested on wells coated with milk (2%), FcMAb (100 ng/well), rGHBP (100 ng/well), or MAb specific for the E-tag epitope (100 ng/well) (FIG. 4A). Detection with HRP-anti M13 phage antibody was done as described. In FIG. 4, alanine replacement for single or multiple amino acid is represented by “a” and for cysteine by “X”.

Test [16] has the same target. The test is described as follows: TRFD, ED50 of specific binding to rGHBP-coated wells.
Protocol: as §1, §2

Regarding “growth hormone (GH), species not stated (ligand)”, the figures for the IC50 in test [1], in test [2] and in test [3] were 5 nM, 2 nM and 0.4 nM, respectively. In test [4], this molecule registered an IC50 (read off the curve) of 5 nM.

“biotinylated growth hormone (bGH) (ligand)” returned an EC50 in test [5] of 20 nM.

In the case of DYKDALLHRSRCVRWGKWVCCLPPVGVGGAQANQGMSVQRFRHC [clone HH peptide], the ELISA signal (unit not given) in [6] was 0.37; in test [7], 0.37; in test [8], 0.35.

B1: peptide #445 (peptide)
peptide: DYKDLCQRLGVGWPGWLAGWCA
modifications: cysteine pairing not given here; also: biotinylated in bP form, position not given here
With B1, the ELISA signal (unit not given) in test [6] worked out at 0.11; in [7] it was 0.14; in [8], 0.12.

B2: GHBP-H5 peptide (H5WT) (peptide)
peptide: DYKDLCQSLGVTYPGWLAGWCA
modifications: cysteine pairing not given here; also: biotinylated in some formats, position not given here
notes: also called H5 phage
B2: the Kd in [9] was found to be 1300 nM; in test [10] it was 3500 nM. Moreover, the “IC50 (read off the curve)” value in test [11] and in [12] was approximately 1000 nM throughout.

B3: peptide #418 (peptide)
peptide: DYKDLCQSWQVTWPGWLAGWCA
modifications: cysteine pairing not given here; also: biotinylated in bP form, position not given here
notes: H5 mutant from the secondary library (Y9 to W, L5 to W, G6 to E), synthetic
Regarding B3, the “fold better binding than H5WT or bP#445” value in [13] is 10 fold. In addition, the Kd worked out at 150 nM in test [9] and 670 nM in test [10]. In addition, the EC50 in test [14] was 800 nM. The “IC50 (read off the curve)” value in [11] was approximately 100 nM.

In the case of DYKDLAQSLGVTYPGWLAGWCA (H5 phage mutant) [X---C (first C crossed out)], the binding result in [15] is reported as “no binding (tested: 10^10 phage/well)”.

B4: peptide #447 (peptide)
peptide: DYKDLCQRLGVGWPGWLSGWCA
modifications: cysteine pairing not given here; also: biotinylated in bP form, position not given here
notes: H5 mutant from the secondary library, synthetic
Consider B4, for which the “fold better binding than H5WT or bP#445” value in [13] was found to be 10 fold. For the same molecule, the Kd in test [9] turned out to be 160 nM; in test [10], 2900 nM. The EC50 in [16] was 700 nM; in test [14] it was 600 nM. Moreover, the “IC50 (read off the curve)” value in [11] was approximately 90 nM.

In the case of DYKDLAQSLGVTYPGWLAGWAA (H5 phage mutant) [X---X (both C crossed out)], the binding result in test [15] is “no binding (tested: 10^10 phage/well)”.

Take DYKDLCQRLGVTWPGWLAGWCA (cysteine pairing not given here; also: biotinylated, position not given here, H5 mutant, synthetic) [peptide #443]: the Kd in test [9] was 600 nM; in [10], more than 10000 nM. Further, the “IC50 (read off the curve)” value in test [11] is approximately 400 nM.

For orientation: IC50 means the midpoint of a concentration-inhibition curve. A word on the EC50: it is the concentration giving half of the maximal effect. Higher therefore signals a less potent agent. Broadly, the Kd is a measure of binding affinity in units of concentration. Read a low Kd as a tighter complex.
